Data: article PMC2843741

Biological target: GST-CypA (UniProt P62937)
Experiment: pull-down; 35S-labelled in vitro translated proteins incubated overnight in binding buffer with about 2.0 µg purified GST fusion or GST alone; glutathione Sepharose beads; 5 washes with PBS, 0.25% NP-40; SDS-10% PAGE, fluorography

Chain of UniProt P62937 (P62937 whole entry, the tested form may be a part): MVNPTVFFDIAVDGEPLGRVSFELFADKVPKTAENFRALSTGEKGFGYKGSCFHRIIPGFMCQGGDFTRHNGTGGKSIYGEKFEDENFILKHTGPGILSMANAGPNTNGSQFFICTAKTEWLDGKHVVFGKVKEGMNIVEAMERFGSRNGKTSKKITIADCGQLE

| Substance | percent of input pulled down |
| --- | --- |
| HA-wt NS5A with in-frame deletion of amino acids 361-451 (domain or fragment) | 5 % of input |
| HA-wt NS5A with in-frame deletion of amino acids 271-360 (domain or fragment) | 8 to 9 % of input |
